Values of other authors, collected in PMC9221339.

Target: IGF-II (Homo sapiens) (UniProt P01344)
Sequence (P01344 25-91): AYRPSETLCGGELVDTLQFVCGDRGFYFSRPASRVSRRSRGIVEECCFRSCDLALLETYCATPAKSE

Sequence of IGF-1R (P08069 31-736): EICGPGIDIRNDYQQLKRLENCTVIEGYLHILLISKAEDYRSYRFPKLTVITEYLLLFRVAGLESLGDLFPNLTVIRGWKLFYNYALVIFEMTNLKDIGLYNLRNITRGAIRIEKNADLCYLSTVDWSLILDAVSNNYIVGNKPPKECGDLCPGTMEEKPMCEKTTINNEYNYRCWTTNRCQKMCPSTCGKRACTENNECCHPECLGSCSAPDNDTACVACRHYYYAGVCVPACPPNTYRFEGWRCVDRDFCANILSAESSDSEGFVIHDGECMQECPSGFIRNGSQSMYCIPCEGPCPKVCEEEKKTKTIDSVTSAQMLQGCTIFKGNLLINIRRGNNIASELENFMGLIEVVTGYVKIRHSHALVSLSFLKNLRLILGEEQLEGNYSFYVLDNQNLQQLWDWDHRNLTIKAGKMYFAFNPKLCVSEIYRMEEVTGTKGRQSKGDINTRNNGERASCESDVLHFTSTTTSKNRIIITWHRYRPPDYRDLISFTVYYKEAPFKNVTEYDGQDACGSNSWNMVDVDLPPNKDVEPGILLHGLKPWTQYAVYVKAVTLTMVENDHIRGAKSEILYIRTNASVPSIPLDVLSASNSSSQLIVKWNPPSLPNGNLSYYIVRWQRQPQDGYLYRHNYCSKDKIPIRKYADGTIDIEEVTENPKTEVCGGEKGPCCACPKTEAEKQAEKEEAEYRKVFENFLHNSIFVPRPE
Sequence of IGF-1R (P08069 741-935): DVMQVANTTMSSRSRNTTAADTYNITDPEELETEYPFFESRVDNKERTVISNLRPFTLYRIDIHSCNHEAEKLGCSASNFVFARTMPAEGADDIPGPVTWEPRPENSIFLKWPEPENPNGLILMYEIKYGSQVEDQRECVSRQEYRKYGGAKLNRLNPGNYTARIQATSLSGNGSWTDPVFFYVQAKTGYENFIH

Kd: 3 nM
Substance: IGF-1R (from UniProt P08069)
